Measurements reported in a protein production outcome set (Wang et al. 2014).

Assay: label from the status in PepcDB records
With “DDDDDNGGSSVMNITGIYLEDAKSNVPDRLVDFARLGQLIRIEGEGFNGLKKVYINGYNCYFNPVFVSNKSFLVSVNSKVPTTEADENVRNTIRLVKDGGEYVYDFQIRAAAPSITKISNCMPNVGEPIIVYGSGLTEIAKVVFPGNVVVTEGIISDLDGEYFMVDMPAGVSEEGGSIFVEGSNGGAYSPAYFNYKKGLLLNFDGVGAQGAWGDSESMIQTTELESASIGEGNVSQGAYCRLPLERQLPVAAAKNRCAEVWTAGNGTDPDWLTLGVPAETPVAECAIQFEIYVPEPWSESGFLKICGQNGFNGGEWERDCYNYVPWLVDGKIVPFQTTGWQTVTVPFSEFYKSKASSGAWTTFADVTATRASASYANFGFYFENSDITLDKITGASSDKETEFLSKATSVKIYIDNWRVVPLTKPEYTDFPDEEEDAE” the protein production was “not failed”. In the case of “DDDLEVKEENGVWVLNDGNFDNFVADKDTVLLEFYAPWCGHCKQFAPEYEKIASTLKDNDPPIAVAKIDATSASMLASKFDVSGYPTIKILKKGQAVDYDGSRTQEEIVAKVREVSQPDWTPPPEVT”, the protein production is reported as “not failed”. In the case of “DELFNWFYIRSEINSKMSFYIATESDALVSILGFYACDFLIDSRIVPGLWTAMWFTLPQYRNGIGALLMKELVDTNSCSMWPRRIKHEFTNS”, the protein production is reported as “failed”. For “DETIHLERGENLFEIHINKVTFSSEVLQASGDKEPVTFCTYAFYDFELQTTPVVRGLHPEYNFTSQYLVHVNDLFLQYIQKNTITLEVHQAYSTEYETIAACQLKFHEILEKSGRIFCTASLIGTKGDIPNFGTVEYWFRLRV”, the protein production was “not failed”. With “DFNPEIFQLESYFKSKYHLKDIEIVSSRKDSDTSEIEKDLAHVAAAMIRKKIKENDKVGIAWGRTLSKVVEAMRPHPVSQVSFVPLAGGPSHINARYHVNTLVYEMSRRFQGSCTFINATLVQENANLAKGILTSKYFEGLMDNWEKLDVAIVGVGGKPKSNEQQWLDLLNQDDFQCLDEEAAVGEITCRFFNHSGDPVNQHLAKRTIGITLEQLQKVPNRIAVAHGNYKAAALLAVLKKGYINHLVTDFSTALNILRLDKDTFVDTIYQKS” the protein production was “failed”. For “DGDIGQLSKTFNYMVSELKSRRNELIAVRDQIDERRRFSEAVLSGVTAGVAGIDDNGNITIINRSIETMFDIRSEHVIGHSLLSLSAEIDQVFQFARSLGRKNHREQVTLSVAGQERVCNVQITMEKDDG”, the protein production was “failed”. With “DGIVELKTVPFDQLVVYEQKLFPAERERFLRLWIKQPNSAAYAVVRDGQIVGYGVIRQSHTGLRIGPLNADNEQIAEQLLLALLAFRSDALVFLDVPDANLEAIKLVQRYGMKPVSEVARMYNKEIPNLLINRVFAVTSLEVG” the protein production was “failed”. In the case of “DGQPVAMGDVGELVIGGVGLARYLDPVKDREKFSAELGWERAYRSGDHVRLCEDGLYFVGRIDDQVKIGGRRIELGEVEAHVAALPNVAQYAVVVRETAAGEKVLVAYVSPQVPDVDIDTSALDELPRAMVPRLVVLPEIPTTTSGKADKKALPWPLESAQVTGSDFTPTQQWLAQLWVDVLGVPVGDVD”, the protein production is reported as “failed”. In the case of “DISEELDYERGRYLDAMIDNHKYTGKARAIIYGQPELALALAKVCFENGVNVKLIALGAKNKILEEALKEEIKSQREEVLVLDDTDFDTIEKYAKEFNVNLFIGNSDGRRMASRLGIEIIRVGFPIHDRV”, the protein production is reported as “failed”. In the case of “DISKITDVAVMTVEGANDDISAPGQCIAALDLCTGLADSKKANHLEPGAGHYGIFAGRSWRDNIRPLVIDFMNTNSRKGKSLRPANKNSAA”, the protein production is reported as “failed”. In the case of “DKLYPCQCGKSFTHKSQRDRHMSMHLGLRPYGCGVCGKKFKMKHHLVGHMKIHTGIKPYECNICAKRFMWRDSFHRHVTSCTKSYEAAKAEQNTTEA”, the protein production is reported as “not failed”. With “DKMDGAPSRVLHIRKLPGEVTETEVIALGLPFGKVTNILMLKGKNQAFLELATEEAAITMVNYYSAVTPHLRNQPIYIQYSNHKELKT” the protein production was “not failed”. With “DLREVLDFMLKDEVSKLRKLLVKIKTKKIAEVEYENVVKALKLFKDNYEINEYLMDENTKEFLIKRNILFLNPVEEILKPQSYLVWNAIKRVLQNINDF” the protein production was “not failed”. For “DPGERLYDLNMPAYVKFNYMAEREDELSLIKGTKVIVMEKCSDGWWRGSYNGQVGWFPSNYVTEEGDSPLGDHVG”, the protein production was “not failed”. In the case of “DRFPVTPVSREDLAGVLEAVERLRHWRPAAAGAWAVDYRGMLEGVHAQGVFDDGHWADLLRLLELSGAPREFGHGDLVLANVVRSRGRQVLIDWASSALYLPGLDLAQLWMLLGDVPGARARIEVEVADRADDRDGMMPFLVNLTLLLYRERRAHRRF”, the protein production is reported as “failed”. With “DVLSSSNFILPDGIGVVMMSRLTNNRLQSRIAGYDVFKELLGVANKKKKRIFLYGAKKDVIKGVVSKISSEYPNIKIAGYSDGYVQDRTLVAKQIARANPDMVFVALGYPHQEKFIHNYRHLFPKAVSIGLGGSFDVFSGNVKRAPSWMIRLNLEWFYRLILNPWRWKRM” the protein production was “not failed”. In the case of “DVREFQPENFARFHPGGSLGRRLLSKVQDEMFSDNIPSVASDADFTSIIHKISSSHLGLTLVNLKDDSLAIITDGDLRRAMESKGRDAFDLVAKDIASINPASISPESNIQKAYEIMESKGITSLIVVESNSVVGIL”, the protein production is reported as “failed”. With “DYIEGVIADISDVYDELRLRKQAEVALQASEAELRSLFSAIPDPLCVVTAQGRVIETVAGNPRQLYSSVEEKVGKTLHQIFEEEQADKFMGYIQQVLRTQQVLTVEYSLQIDGRETWFSARIAPIRHE” the protein production was “failed”. For “EADMLFSVTVPGSTANLGPGFDSVGMALSRYLKLTVFESDKWSFEAETETVAGIPAGTDNLIYQVAKRTADLYGKEMPPVHVKVWSDIPLARGLGSSAAAIVAAIELADELCGLKLSEADKLHLASLEEGHPDNAGASLVGGLVIGLHEDDETQM”, the protein production was “failed”. In the case of “ECSQDCATCSYRLVRPADINFLACVMECEGKLPSLKIWETCKELLQLSKPELPQDGTSTLRENSKPEESHLLAKRYGGFMKRYGGFMKKMDELYPMEPEE”, the protein production is reported as “failed”. With “EDFRPVVFVHGLAGSAGQFESQGMRFAANGYPAEYVKTFEYDTISWALVVETDMLFSGLGSEFGLNISQIIDPETLDKILSKSRERLIDETFSRLDRVIDEALAESGADKVDLVGHSMGTFFLVRYVNSSPERAAKVAHLILLDGVWGVDAPEGIPTLAVFGNPKALPALGLPEEKVVYNATNVYFNNMTHVQLCTSPETFAVMFEFINGYKPATT” the protein production was “not failed”. In the case of “EDPFQPEIKVRCVCGNSLETDSMIQVIWDELTAFIPCEDPRCHVWQHVGCVILPDKPMDGNPPLPESFYCEICRLT”, the protein production is reported as “not failed”. In the case of “EDPGDAQVVFARLDAYIRRHLQSEIEVAALAEQAHMSTRSLYALFERQLGESPRQYIRRLRLERIRACLEDPGCRVRNLTELALDFGFAHLGRFAEQYRRQFGELPSETLRRRA”, the protein production is reported as “failed”. In the case of “EDVKEFEREETQDKEESVESSLPLNAIEPCVICQGRPKNGCIVHGKTGHLMACFTCAKKLKKRNKPCPVCRQPIQMIVLTYFP”, the protein production is reported as “failed”. With “EEAGRSATEIARAVAAVSAPIDLVAAGAAIDSGVNRLIYTRHFLRTMIPNALAKWQQHPGLFDRELVQRATTLREFDDAFTAPLHGFTGVDDYWTRASSKPHLHKITIPALVVNARNDPFVPAVSLPTQDEVGEMVTLWQPDEGGHVGFATGPWPGRIAAMPEAVSDWLGAV” the protein production was “failed”. In the case of “EEKPCGFPHVENGRIAQYYYTFKSFYFPMSIDKKLSFFCLAGYTTESGRQEEQTTCTTEGWSPEPRCFKKCTKPDLSNGYISDVK”, the protein production is reported as “failed”. In the case of “EEMEKGFDPKRYARELWFKLQDMMNEGLGYDAVEVLNTLDENPELAHQKFAKVVGVSNYRYYIIQGVGEIVEIKDDGILVKVRENRKVPDLFLSNHIFGNGIVNATGIAKMEDFDRIIDFNLTATELNKIVKEEVVNSFLKQLSKGAGSVGSLVRFIAVFTLLKDEEIKYPIEAIPLYLEIQGGF”, the protein production is reported as “not failed”. For “EGAGDALTTVAERARLLADACAGVILHPTAEGGMAIVTASTPDDPDGMVGATIEPGSPVLEQLLGGEPVFVDDSATDPRMTTHVRHRFGPSMMLPLQAGGRLIGTLALPRRRGGRPYTDLERLLATQFASQAALALVLADARRGRELLAVYEDRDRIARDLHDLVV”, the protein production was “failed”. In the case of “EGLNICKKIMVISDKNDAISEFIIKELERGCTIIDGKGGYTGKDTYILYTVLNRKEFIRLRIFIKETDPNAFITISDAKEVLGEGFKEI”, the protein production is reported as “not failed”. In the case of “EHIARRKAGDAAERLVKLIPAFCHHMPDYPDTQETCEAAVVKLKAGDIVLVKPGETIPVDGTVLEGSSAVNESMLTGESLPVAKMPSEKVTAGTLNTQSPLIIRTDRTGGGTRLSHIVRLLDRALAQKPRTAELAEQ”, the protein production is reported as “failed”. In the case of “EIKIGITMSASGPGAALGQPQSKTVAALPKEIGGEKVTYFALDDESDPTKAAQNARKLLSEEKVDVLIGSSLTPVSLPLIDIAAEAKTPLMTMAAAAILVAPMDERRKWVYKVVPNDDIMAEAIGKYIAKTGAKKVGYIGFSDAYGEGYYKVLAAAAPKLGFELTTHEVYARSDASVTGQVLKIIATKPDAVFIASAGTPAVLPQKALRERGFKGAIYQTHGVATEEFIKLGGKDVEGAIFAGEAFSGAEDMPADSPFRKVKARFVDAYKAANGGAAPTIFGVHLWDSMTLVENAIPAALKAAKPGTPEFRAAIRDQIEKSKDLALNNGLSNMTPDNHNGYDERSAFLIEIRDGAFRLKQ”, the protein production is reported as “not failed”. In the case of “EKAEDCWELQISPELLAHGRQKILDLLNEGSARDLRSLQRIGPKKAQLIVGWRELHGPFSQVEDLERVEGITGKQMESFLKANILGLAAGQ”, the protein production is reported as “not failed”. For “EKDTIAAEHKQEASVLLNLHRNKINYLIGETMARMTSLSIAIDRPVDIKKMQSILEKTFDSEPRFSGLYFLNAKGDVTASTTELKTKVNLADRSFFIKAKETKKTVISDSYSSRITGQPIFTICVPVLDSKRNVTDYLVAAIQIDYLKNLINLLSPDVYIEVVNQDGKMIFASGQASHAEDQKPVSGYLDDISWNMKVYPNPVTIEELSKS”, the protein production was “failed”. In the case of “EKEKDTIAAEHKQEASVLLNLHRNKINYLIGETMARMTSLSIAIDRPVDIKKMQSILEKTFDSEPRFSGLYFLNAKGDVTASTTELKTKVNLADRSFFIKAKETKKTVISDSYSSRITGQPIFTICVPVLDSKRNVTDYLVAAIQIDYLKNLINLLSPDVYIEVVNQDGKMIFASGQASHAEDQKPVSGYLDDISWNMKVYPNPVTIEELSKSL”, the protein production is reported as “not failed”. For “EKVDLQYAAYEPKKLQSGNKNPLIIWLHGQGEGGTDPDITLLGNKVTALIKEDIQNHFKSGNQKGTYVLTVQAPTYWMDEGDGSNGQGAGTSRYTEVLMDAIKKYVAKIT”, the protein production was “failed”. In the case of “ELAWLVDCLAPIFDGLRQPVTVVDPSGRFVYYNRASGLLDGLDPQRALGMHLLQSAPWLAAEQSTLLRCLAEGRPSIDTLQAYVGAGGELLQYRHRAIPLRGRDGCLLGAMEL”, the protein production is reported as “failed”. With “EMRLEKDRFSVNLDVKHFSPEELKVKVLGDVIEVHGKHEERQDEHGFISREFHRKYRIPADVDPLTITSSLSSDGVLTVNGPRKQVSGPERTIPIT” the protein production was “failed”. For “EMTLVTLRSNDQFNTTIYGFSDRLRGLEGPRNVLLMNPEEIARHGLHEGQRVTLECAWSDGVDRRVSGLRVTAYDLPDSCVGAYYPETNPLVPLAARDELSGTPAYKGTPVRVRAEGSAAPL”, the protein production was “failed”. With “EPEQVIRKYTEELKVAPEEDCIICMEKLAVASGYSDMTDSKALGPMVVGRLTKCSHAFHLLCLLAMYCNGNKDGSLQCPSCKTIYGEKTGTQPWGKMEVFR” the protein production was “not failed”. For “EQVQRFGDLDVHYNVFNSSFLQPNVASAVGLVRSKAQGVINVVPMEKGKPVEAAVTGSAKDLTGKVIPLEFRRVSEEGAIYNLAQFPISQRETLVFTIKVEAKGEPAQTFSFNKEIFPDE”, the protein production was “not failed”.
